From the RNAGym collection of RNA variant scans (doi:10.7554/elife.80360)

B1: Hairpin Ribozyme (parent)
chain: GUCCUCUUUCACGUGCGCGUGAAAGAGAGAAGUGAACCAGAGAAACACACGUUGUGGUAUAUUACCUGGUA

Variants of: B1
Test: self-cleavage, relative activity (ratio to wild type); higher = more cleavage; co-transcriptional

First: GUCCUCUUUCACGUGCGCGUGAAAGAGAGAAGUGAACCAGAGAAACAAAGGUUGUGGUAUAUUACCUGGUA [C48A C50G]
Second: GUCCUCUUUCACGUGCGCGUGAAAGAGAGAAGUGAACCAGAGAAACUCACGUUGUGGUAUAUUACCAGGUA [A47U U67A]
The self-cleavage of the first is lower: 0.0517 for the first, 0.103 for the second.

Going from GUCCUCUUUCACGUGCGCGUGAAAGAGAGAAGUGAACCAGAGAAACAGACGUUGUGUUAUAUUACCUGGUA [C48G G57U] to GUCCUCUUUCACGUGCGCGUGAAAGAGAGAAGUGAACCAGAGAAACAGACGUUGUGAUAUAUUACCUGGUA [C48G G57A], the self-cleavage rises from 0.101 to 0.151.

Going from GUCCUCUUUCACGUGCGCGUGAAAGAGAGAAGUGAACCAGAGAAACUCACGUUGUGGUAUAUUACCUGGAA [A47U U70A] to GUCCUCUUUCACGUGCGCGUGAAAGAGAGAAGUGAACCAGAGAAACUCACGUUGUGGUAUAUUACCUGGGA [A47U U70G], the self-cleavage falls from 0.276 to 0.141.

Compared with GUCCUCUUUCACGUGCGCGUGAAAGAGAGAAGUGAACCAGAGAAACAGACGUUGGGGUAUAUUACCUGGUA [C48G U55G], GUCCUCUUUCACGUGCGCGUGAAAGAGAGAAGUGAACCAGAGAAACAGACGUUGCGGUAUAUUACCUGGUA [C48G U55C] is lower in self-cleavage: 0.143 for the first, 0.106 for the second.

Compared with GUCCUCUUUCACGUGCGCGUGAAAGAGAGAAGUGAACCAGAGAAACUCACGUUGUGAUAUAUUACCUGGUA [A47U G57A], GUCCUCUUUCACGUGCGCGUGAAAGAGAGAAGUGAACCAGAGAAACUCACGUUGUGGUAUAUUCCCUGGUA [A47U A64C] is lower in self-cleavage: 0.417 for the first, 0.0694 for the second.

Going from GUCCUCUUUCACGUGCGCGUGAAAGAGAGAAGUGAACCAGAGAAACAAACGUUGUGGUAUAAUACCUGGUA [C48A U62A] to GUCCUCUUUCACGUGCGCGUGAAAGAGAGAAGUGAACCAGAGAAACAAACUUUGUGGUAUAUUACCUGGUA [C48A G51U], the self-cleavage rises from 0.14 to 0.141.

Going from GUCCUCUUUCACGUGCGCGUGAAAGAGAGAAGUGAACCAGAGAAACAAACAUUGUGGUAUAUUACCUGGUA [C48A G51A] to GUCCUCUUUCACGUGCGCGUGAAAGAGAGAAGUGAACCAGAGAAACAAACCUUGUGGUAUAUUACCUGGUA [C48A G51C], the self-cleavage rises from 0.106 to 0.152.

Compared with GUCCUCUUUCACGUGCGCGUGAAAGAGAGAAGUGAACCAGAGAAACUCAAGUUGUGGUAUAUUACCUGGUA [A47U C50A], GUCCUCUUUCACGUGCGCGUGAAAGAGAGAAGUGAACCAGAGAAACUCAGGUUGUGGUAUAUUACCUGGUA [A47U C50G] is higher in self-cleavage: 0.113 for the first, 0.28 for the second.

Going from GUCCUCUUUCACGUGCGCGUGAAAGAGAGAAGUGAACCAGAGAAACAAACGUUGUGGUAUAUUAACUGGUA [C48A C65A] to GUCCUCUUUCACGUGCGCGUGAAAGAGAGAAGUGAACCAGAGAAACAAACGUUGUGGUAUAUCACCUGGUA [C48A U63C], the self-cleavage rises from 0.131 to 0.198.

First: GUCCUCUUUCACGUGCGCGUGAAAGAGAGAAGUGAACCAGAGAAACAAACGUUGUGGCAUAUUACCUGGUA [C48A U58C]
Second: GUCCUCUUUCACGUGCGCGUGAAAGAGAGAAGUGAACCAGAGAAACAGACGUUGUGGUUUAUUACCUGGUA [C48G A59U]
The self-cleavage of the first is higher: 0.154 for the first, 0.0386 for the second.

First: GUCCUCUUUCACGUGCGCGUGAAAGAGAGAAGUGAACCAGAGAAACAAACGUUGUGGUAUAUUCCCUGGUA [C48A A64C]
Second: GUCCUCUUUCACGUGCGCGUGAAAGAGAGAAGUGAACCAGAGAAACAAACGUUGUGGUAUAUUACCUUGUA [C48A G68U]
The self-cleavage of the first is lower: 0.0601 for the first, 0.16 for the second.

Compared with GUCCUCUUUCACGUGCGCGUGAAAGAGAGAAGUGAACCAGAGAAACUCUCGUUGUGGUAUAUUACCUGGUA [A47U A49U], GUCCUCUUUCACGUGCGCGUGAAAGAGAGAAGUGAACCAGAGAAACUCACGUUGUGGUAUUUUACCUGGUA [A47U A61U] is higher in self-cleavage: 0.149 for the first, 0.211 for the second.

First: GUCCUCUUUCACGUGCGCGUGAAAGAGAGAAGUGAACCAGAGAAACAGACGUUUUGGUAUAUUACCUGGUA [C48G G54U]
Second: GUCCUCUUUCACGUGCGCGUGAAAGAGAGAAGUGAACCAGAGAAACAGACGUUGUGGUAUAUUGCCUGGUA [C48G A64G]
The self-cleavage of the first is higher: 0.211 for the first, 0.155 for the second.

First: GUCCUCUUUCACGUGCGCGUGAAAGAGAGAAGUGAACCAGAGAAACAGACGUUGUGGUAUAUUUCCUGGUA [C48G A64U]
Second: GUCCUCUUUCACGUGCGCGUGAAAGAGAGAAGUGAACCAGAGAAACAAACGUUGUGGUAUAUUACAUGGUA [C48A C66A]
The self-cleavage of the first is lower: 0.149 for the first, 0.189 for the second.

Compared with GUCCUCUUUCACGUGCGCGUGAAAGAGAGAAGUGAACCAGAGAAACAAACGUUGUGGUAUAUUACCCGGUA [C48A U67C], GUCCUCUUUCACGUGCGCGUGAAAGAGAGAAGUGAACCAGAGAAACAAACGUUGUGGUAUAUUACCAGGUA [C48A U67A] is lower in self-cleavage: 0.137 for the first, 0.11 for the second.

Going from GUCCUCUUUCACGUGCGCGUGAAAGAGAGAAGUGAACCAGAGAAACAGACGUUGUGGUAUAUUACCUGGUG [C48G A71G] to GUCCUCUUUCACGUGCGCGUGAAAGAGAGAAGUGAACCAGAGAAACAGACUUUGUGGUAUAUUACCUGGUA [C48G G51U], the self-cleavage rises from 0.142 to 0.17.

Compared with GUCCUCUUUCACGUGCGCGUGAAAGAGAGAAGUGAACCAGAGAAACAGACCUUGUGGUAUAUUACCUGGUA [C48G G51C], GUCCUCUUUCACGUGCGCGUGAAAGAGAGAAGUGAACCAGAGAAACUCACGGUGUGGUAUAUUACCUGGUA [A47U U52G] is higher in self-cleavage: 0.0824 for the first, 0.256 for the second.

Compared with GUCCUCUUUCACGUGCGCGUGAAAGAGAGAAGUGAACCAGAGAAACUCACGAUGUGGUAUAUUACCUGGUA [A47U U52A], GUCCUCUUUCACGUGCGCGUGAAAGAGAGAAGUGAACCAGAGAAACAGACGUUGUGGUAUAUUAUCUGGUA [C48G C65U] is higher in self-cleavage: 0.148 for the first, 0.166 for the second.

Going from GUCCUCUUUCACGUGCGCGUGAAAGAGAGAAGUGAACCAGAGAAACAGACGUUGUGGUAUAUUAACUGGUA [C48G C65A] to GUCCUCUUUCACGUGCGCGUGAAAGAGAGAAGUGAACCAGAGAAACAGACGUUGUGGUAUAUUAGCUGGUA [C48G C65G], the self-cleavage falls from 0.22 to 0.149.
